Results as given in article PMC3428924.

Assays:
[1] = target: elongation factor 1B beta (eEF1Bβ) of C. fasciculata (C. fasciculata (endogenous in choanomastigotes)); test: SEC
[2] = target: elongation factor 1B alpha (eEF1Bα) of C. fasciculata (C. fasciculata (endogenous in choanomastigotes)); test: SEC

| stoichiometry N [1] | stoichiometry N [2] | Substance |
| --- | --- | --- |
| 2 γ per β | 2 γ per α | elongation factor 1B gamma (eEF1Bγ) of C. fasciculata (natural protein) |
| 1 α per β |  | elongation factor 1B alpha (eEF1Bα) of C. fasciculata (natural protein) |
